In paper PMC6969021:

Key:
[1] = target: firefly luciferase (FLuc), wild type (Photinus pyralis) [luciferase: P08659]
[2] = target: FLucNC-Atto532 (Photinus pyralis); test: AUC; sedimentation velocity, detection at 532 nm; GuHCl-denatured FLuc-Atto532 diluted to 200 nM in folding buffer with 3 µM DnaK, 1 µM DnaJ, 5 mM ATP

Chain of DnaJ (P08622 whole entry): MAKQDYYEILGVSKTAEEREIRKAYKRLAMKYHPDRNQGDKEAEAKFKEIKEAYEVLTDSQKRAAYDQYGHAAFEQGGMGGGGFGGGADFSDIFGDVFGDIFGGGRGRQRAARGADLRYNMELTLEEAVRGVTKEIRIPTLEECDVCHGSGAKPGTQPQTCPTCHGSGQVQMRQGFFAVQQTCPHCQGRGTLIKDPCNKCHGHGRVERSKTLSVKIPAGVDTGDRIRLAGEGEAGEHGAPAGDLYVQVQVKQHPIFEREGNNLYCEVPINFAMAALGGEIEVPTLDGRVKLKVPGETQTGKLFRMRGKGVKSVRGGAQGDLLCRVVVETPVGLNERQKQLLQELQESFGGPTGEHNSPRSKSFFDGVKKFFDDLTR
Chain of DnaK (P0A6Y8 whole entry): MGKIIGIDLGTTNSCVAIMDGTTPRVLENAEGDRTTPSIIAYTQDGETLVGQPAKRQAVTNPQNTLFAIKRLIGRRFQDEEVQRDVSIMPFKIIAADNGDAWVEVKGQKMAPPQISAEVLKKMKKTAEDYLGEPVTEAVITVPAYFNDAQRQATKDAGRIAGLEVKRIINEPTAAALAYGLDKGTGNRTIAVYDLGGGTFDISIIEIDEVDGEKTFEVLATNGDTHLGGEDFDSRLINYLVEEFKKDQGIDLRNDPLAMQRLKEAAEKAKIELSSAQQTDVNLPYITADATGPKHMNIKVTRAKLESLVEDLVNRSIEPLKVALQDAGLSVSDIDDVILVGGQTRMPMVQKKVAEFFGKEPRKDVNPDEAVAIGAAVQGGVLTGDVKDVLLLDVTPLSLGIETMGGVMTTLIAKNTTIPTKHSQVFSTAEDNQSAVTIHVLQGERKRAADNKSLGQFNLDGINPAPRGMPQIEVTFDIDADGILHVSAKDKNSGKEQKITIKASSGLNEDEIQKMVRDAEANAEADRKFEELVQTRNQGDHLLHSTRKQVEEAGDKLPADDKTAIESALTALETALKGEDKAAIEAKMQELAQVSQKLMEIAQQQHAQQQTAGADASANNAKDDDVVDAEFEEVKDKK

DnaJ (from UniProt P08622 1-376) (natural protein)
yield of luminescence refolding of FLuc in the presence of KJE without ATP [1]: 40%

DnaK (from UniProt P0A6Y8 1-638) (natural protein)
stoichiometry N (DnaK per FLuc) [2]: 12
